What was measured:
Mad1 CTD [1] = target: Mad1 CTD (UniProt Q9Y6D9); experiment: ITC; settings: reference: pT461 peptide; sites S459
Mad1 CTD [2] = target: Mad1 CTD (UniProt Q9Y6D9); experiment: peptide-bead pull-down, Coomassie
Cdc20 Cdc20N, 1-170 = Cdc20 Cdc20N, 1-170 (UniProt Q12834); experiment: Ni2+ bead pull-down, anti-Mad1 blot; settings: reference: Mad1E–Mad2 wild type; sites T716
scMad1 CTD [3] = target: scMad1 CTD (UniProt P40957); experiment: ITC; settings: reference: pT455 peptide; sites T453
scMad1 CTD [4] = target: scMad1 CTD (UniProt P40957); experiment: peptide-bead pull-down, Coomassie

Bub1 455-477 (from UniProt O43683) pS459-pT461 peptide
binding against the reference (Mad1 CTD [1]): stronger
binding against the reference (Mad1 CTD [2]; reference: pT461 peptide, sites S459): stronger

Bub1 455-477 (from UniProt O43683) pS459-pT461-pT464 peptide
binding against the reference (Mad1 CTD [2]; reference: pS459-pT461 peptide, sites T464): weaker

Mad1 Mad1E (MIM + CTD) (from UniProt Q9Y6D9) Mad1E T716A
binding against the reference (Cdc20 Cdc20N, 1-170): weaker

scBub1 449-473 (from UniProt P41695) pT453-pT455 peptide
binding against the reference (scMad1 CTD [3]): same
binding against the reference (scMad1 CTD [4]; reference: pT453 peptide, sites T455): stronger
binding against the reference (scMad1 CTD [4]; reference: pT455 peptide, sites T453): same
